Residue numbers refer to the chain shown, from its start. In names and notes the source's numbering stands.
How the values were obtained:
ctPrp43 = target: T1, ctPrp43 (Thermochaetoides thermophila, UniProt G0RY84); test: NADH-coupled ATPase assay (pyruvate kinase / lactate dehydrogenase), […] nm; format: biochemical; details: no RNA; no G-patch protein; 25 mM Bis-Tris propane pH 7.5, 150 mM KCl, 3 mM MgCl2, 25 °C; 5 uM enzyme; ATP 0-2 mM
T1 construct: gene CTHT_0005780; truncated, residues 61-764; GST fusion, tag cleaved by TEV; E. coli Rosetta 2 (DE3); no G-patch protein
T1 sequence (G0RY84 entry or part of it): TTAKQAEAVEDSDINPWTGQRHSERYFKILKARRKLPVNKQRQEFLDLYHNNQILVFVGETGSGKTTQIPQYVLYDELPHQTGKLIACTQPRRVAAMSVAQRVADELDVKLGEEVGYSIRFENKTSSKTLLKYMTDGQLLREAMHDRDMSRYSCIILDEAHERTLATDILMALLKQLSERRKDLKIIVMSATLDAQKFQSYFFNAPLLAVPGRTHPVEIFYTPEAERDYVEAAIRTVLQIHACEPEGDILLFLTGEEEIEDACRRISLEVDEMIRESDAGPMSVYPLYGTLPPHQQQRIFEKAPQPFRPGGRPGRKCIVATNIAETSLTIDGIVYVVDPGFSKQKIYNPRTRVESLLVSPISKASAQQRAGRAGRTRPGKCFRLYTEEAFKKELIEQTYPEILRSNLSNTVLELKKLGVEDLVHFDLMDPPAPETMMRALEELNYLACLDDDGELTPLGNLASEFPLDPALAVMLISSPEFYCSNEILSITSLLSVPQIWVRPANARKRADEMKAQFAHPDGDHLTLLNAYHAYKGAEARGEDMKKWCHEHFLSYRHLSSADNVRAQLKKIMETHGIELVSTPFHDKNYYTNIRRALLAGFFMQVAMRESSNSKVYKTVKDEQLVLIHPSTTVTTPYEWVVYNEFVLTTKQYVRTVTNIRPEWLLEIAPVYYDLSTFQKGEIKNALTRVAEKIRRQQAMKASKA

purified protein = substrate: Nc1ncnc2c1ncn2[C@@H]1O[C@H](COP(=O)(O)OP(=O)(O)OP(=O)(O)O)[C@@H](O)[C@H]1O; test: purified protein; format: biochemical, Thermochaetoides thermophila; details: no RNA, 25 mM Bis-Tris propane pH 7.5, 150 mM KCl, 3 mM MgCl2, 25 °C, 0.4 uM enzyme, ATP 0-2 mM

**Q.** Which Km (ctPrp43) does the source give for `Nc1ncnc2c1ncn2[C@@H]1O[C@H](COP(=O)(O)OP(=O)(O)OP(=O)(O)O)[C@@H](O)[C@H]1O` [ATP] here?
**A.** 21.1 ± 3.88 µM

B1: ctPrp22 (Thermochaetoides thermophila DSM 1495) (protein)
chain: TNMSIKEQRESLPVFQFRDQIIQAVKDNQILIVVGETGSGKTTQVTQYLAEAGFTKYGMIGCTQPRRVAAVSVAKRVAEEVGCQLGQEVGYTIRFEDVTSPATKIKYMTDGMLQREILMDPDLKRYSVIMLDEAHERTIATDVLFALLKKTVKRRPDLKVIVTSATLDAEKFSEYFNSCPIFTIPGRTFPVEILYSREPEPDYLEAALTTVMQIHLTEPPGDILVFLTGQEEIDTACEILYERMKALGPSVPELIILPIYSALPSEMQSRIFEPAPPGSRKVVIATNIAETSITIDYIYYVVDPGFVKQNAYDPKLGMDSLVVTPISQAQANQRAGRAGRTGPGKCFRLYTEAAYQSEMLPTTIPDIQRQNLANTILLLKAMGINDLLRFDFMDPPPVNTMLTALEELYALGALDDEGLLTRLGRKMADFPMEPSLSKVLIASVDKGCSDEMVTIVSMLNLQQIFYRPKDKQQQADQKKAKFHDPTGDHLTLLNVYNAWKNSGYSNAWCFENYIQARAMRRARDVRQQIVKIMERHRHPIISCGRDTDKIRQALCAGFFRNTARKDPQEGYKTLTEGTPVYLHPSSALFGKQAEWVLYHELVLTTKEYMHFTTAIEPKWLVEAAPTFFKLAPTDRLSKRKKAERIQPLYNKYEGEDGWRLSAQRRAARPGGGGGTWG
notes: N-terminally truncated, lacks first 545 residues (S1 motif omitted); GST fusion from pGEX-6p1, tag cleaved by TEV; E. coli Rosetta 2 (DE3)
**Q.** Which Km (purified protein) does the source give for B1 here?
**A.** 34.53 ± 1.74 µM

**Q.** And the kcat (purified protein)?
**A.** 0.559 ± 0.00483 s⁻¹

B2: ctPrp22 (Thermochaetoides thermophila DSM 1495; S837A) (protein)
chain: B1 chain with S292A
notes: as for B1
**Q.** What does the source list for B2?
**A.** Km (purified protein): 33.15 ± 2.24 µM; kcat (purified protein): 0.8948 ± 0.0107 s⁻¹

B3: ctPrp22 (Thermochaetoides thermophila DSM 1495; S837G) (protein)
chain: B1 chain with S292G
notes: as for B1
**Q.** With B3 as the molecule, how does the Km (purified protein) read?
**A.** 24.79 ± 0.93 µM

**Q.** And the kcat (purified protein)?
**A.** 0.9228 ± 0.00583 s⁻¹

Reference: paper PMC6486627, “Structural basis for RNA translocation by DEAH-box ATPases” (Nucleic Acids Research, 2019)
